# In US20180179499A1, “BIOBASED PRODUCTION OF FUNCTIONALIZED ALPHA-SUBSTITUTED ACRYLATES AND C4-DICARBOXYLATES” (BIOAMBER INC., priority 2015, published 2018):
# Assay: Synthase activity assay (DTNB, lysates of BL21 E. coli expressing the candidate)
# Assay type: biochemical
# Details: Table H, wild type and mutant synthases; 0.5 mM hydroxypyruvate
# Procedure: E coli optimized genes encoding synthases were synthesized and cloned into pTrcHisA (Life Technologies (formerly Invitrogen)). Synthase genes tested are found in Table G. Plasmids containing the optimized synthase genes were transformed into BL21 E. coli cells. Empty plasmid pTrcHisA was also transformed as a negative control. […]. Flasks were incubated at 30° C. at 250 rpm shaking for 2 hours, then protein production was induced with 0.2 mM IPTG and incubated for 4 more hours at 30° C. while shaking. Cells were harvested by centrifugation and pellets were stored at −80° C.
# Activity of synthase candidates was assessed with an in vitro assay using DTNB (5,5′-Dithiobis(2-nitrobenzoic acid)) as an indicator. The enzyme activity was tested using either no substrate or hydroxypyruvate as the substrate. The DTNB interacts with the free thio created by the condensation of acetyl-CoA and the substrate present. Unless otherwise specified, all chemicals were purchased from Sigma-Aldrich Chemical Company, St. Louis, Mo.
# Cells were lysed using mechanical disruption using a BeadBeater (BopSpec products, Bartlesville, Okla.) following the manufacturer's instructions. The cell lysate was partially clarified by centrifugation (14,000G for 5 minutes). Protein concentrations of the resulting clarified lysates were measured via BioRad total Protein assay using the manufacturer's instructions. Lysates were normalized by protein concentration in 100 mM Tris buffer. The normalized lysates were diluted 1 to 7 in 100 mM Tris buffer. 20 μl of lysate was added to each well for the 96-well plate assay. Each condition was performed in triplicate.
# The reaction mixture contains 100 mM Tris pH 7.4, 5 mM MgSO4, 0.2 mM acetyl-CoA, 0.5 mM DTNB, 0.5 mM substrate, hydroxypyruvate. To start the reaction, 180 μl of reaction mix was added to each well already containing 20 μl lysate. The reactions in these microplates were monitored at 412 nm. Readings were taken every 9 seconds for 10 minutes and the data was used to calculate activities of each enzyme. Synthase activity was observed when hydroxypyruvate was the substrate as compared to cells containing empty vector (FIG. 20(a), Table G). Background absorbance as measured by the same reaction with no substrate present were subtracted. Error bars in the graphs reflect the standard deviations calculated for the averages for each condition performed in triplicate. Specific mutations change the activity of the enzymes tested (FIG. 20(b), Table H). Further enzyme engineering will improve specificity and activity of desired enzymatic reaction.
molecule,measurement,value
"SpLys4mt3: Lys4 mutant D123N, V125F, I194L, Schizosaccharomyces pombe (protein, UniProt Q9Y823 1-418, looked up, variant D123N V125F I194L) MSVSEANGTETIKPPMNGNPYGPNPSDFLSRVNNFSIIESTLREGEQFANAFFDTEKKIQIAKALDNFGVDYIELTSPVASEQSRQDCEAICKLGLKCKILTHIRCHMDDARVAVETGVDGVNVFIGTSQYLRKYSHGKDMTYIIDSATEVINFVKSKGIEVRFSSEDSFRSDLVDLLSLYKAVDKIGVNRVGLADTVGCATPRQVYDLIRTLRGVVSCDIECHFHNDTGMAIANAYCALEAGATHIDTSILGIGERNGITPLGALLARMYVTDREYITHKYKLNQLRELENLVADAVEVQIPFNNYITGMCAFTHKAGIHAKAILANPSTYEILKPEDFGMSRYVHVGSRLTGWNAIKSRAEQLNLHLTDAQAKELTVRIKKLADVRTLAMDDVDRVLREYHADLSDADRITKEASA",Activity with hydroxy pyruvate,0.013
